In PMC12655336, “Study on the High-Efficiency Expression of Horseradish Peroxidase in Pichia pastoris” (Molecules, 2025):

B1: Degly-HRP (Armoracia rusticana) (protein)
chain: QLTPTFYDNSCPNVSNIVRDTIVNELRSDPRIAASILRLHFHDCFVNGCDASILLDNTTSFRTEKDAFGNANSARGFPVIDRMKAAVESACPRTVSCADLLTIAAQQSVTLAGGPSWRVPLGRRDSLQAFLDLANANLPAPFFTLPQLKDSFRNVGLNRSSDLVALSGGHTFGKNQCRFIMDRLYNFSNTGLPDPTLNTTYLQTLRGLCPLNGNLSALVDFDLRTPTIFDNKYYVNLEEQKGLIQSDQELFSSPNATDTIPLVRSFANSTQTFFNAFVEAMDRMGNITPLTGTQGQIRLNCRVVNSNS
notes: same HRP-C from Pichia pastoris GS115, His-tagged, Ni-NTA purified; deglycosylated with EndoH (O-glycans may remain)
B2: HRP-C (W-HRP) (Armoracia rusticana) (protein)
chain: B1 chain
notes: codon-optimised synthetic HRP-C gene, secreted from Pichia pastoris GS115 with MF4I signal peptide, His-tagged, Ni-NTA purified; glycosylated (not EndoH treated)

Key:
[1] = substrate: COc1ccccc1O; test: purified protein; conditions: 1 mM H2O2, 37 °C, 436 nm
[2] = substrate: Nc1ccccc1N; test: spectrophotometric oxidation, Michaelis-Menten fit; type: biochemical, Armoracia rusticana; conditions: 1 mM H2O2, 37 °C, 492 nm, deglycosylated enzyme
Source text: (§1) spectrophotometric oxidation, Michaelis-Menten fit on Degly-HRP

[3] = substrate: Cc1cc(-c2cc(C)c(N)c(C)c2)cc(C)c1N; test: spectrophotometric oxidation, Michaelis-Menten fit; type: biochemical, Armoracia rusticana; conditions: 1 mM H2O2, 37 °C, 450 nm, deglycosylated enzyme
Source text: as §1

[4] = substrate: CCn1c(=NN=c2sc3cc(S(=O)(=O)O)ccc3n2CC)sc2cc(S(=O)(=O)O)ccc21; test: spectrophotometric oxidation, Michaelis-Menten fit; type: biochemical, Armoracia rusticana; conditions: 1 mM H2O2, 37 °C, 415 nm, deglycosylated enzyme
Source text: as §1

[5] = substrate: Nc1ccccc1N; test: spectrophotometric oxidation, Michaelis-Menten fit; type: biochemical, Armoracia rusticana; conditions: 1 mM H2O2, 37 °C, 492 nm, glycosylated enzyme
Source text: (§2) spectrophotometric oxidation, Michaelis-Menten fit on HRP-C (W-HRP)

[6] = substrate: CCn1c(=NN=c2sc3cc(S(=O)(=O)O)ccc3n2CC)sc2cc(S(=O)(=O)O)ccc21; test: spectrophotometric oxidation, Michaelis-Menten fit; type: biochemical, Armoracia rusticana; conditions: 1 mM H2O2, 37 °C, 415 nm, glycosylated enzyme
Source text: as §2

Row | Protein | Km ([1]; deglycosylated enzyme) | kcat ([1]; deglycosylated enzyme) | Km [2] | kcat [2] | Km [3] | kcat [3] | Km [4] | kcat [4] | Km [5] | kcat [5] | Km [6] | kcat [6] | kcat ([1]; glycosylated enzyme)
1 | B1 | 20.59 µM | 270 s⁻¹ | 41 µM | 745 s⁻¹ | 96 µM | 238 s⁻¹ | 45.35 µM | 238 s⁻¹ | – | – | – | – | –
2 | B2 | – | – | – | – | – | – | – | – | 36 µM | 747 s⁻¹ | 48.55 µM | 267 s⁻¹ | 291 s⁻¹
